From PMC4078514 (2014)
No end group written: not given here.

B1: [99mTc(CO)3(16)] BBS reference conjugate (peptide)
chain: QWAVGHL
modifications: not fully specified (N-terminus, C-terminus); also: triazole 99mTc(CO)3 chelate, methyl group in place of shepherdin
B2: [99mTc(CO)3(14)] BBS-shepherdin(79-83) conjugate (peptide)
chain: QWAVGHL
modifications: not fully specified (C-terminus); also: (βAla)3 spacer, triazole-Lys 99mTc(CO)3 chelate, succinyl-linked shepherdin KHSSG
B3: [99mTc(CO)3(15)] BBS-scrambled shepherdin(79-83) conjugate (peptide)
chain: QWAVGHL
modifications: not fully specified (C-terminus); also: (βAla)3 spacer, triazole-Lys 99mTc(CO)3 chelate, succinyl-linked scrambled shepherdin SGKHS

molecular target: gastrin-releasing peptide receptor (GRP-r) (Homo sapiens, UniProt P30550); assay: radioligand saturation binding on PC-3 cells
Sequence (P30550 whole entry): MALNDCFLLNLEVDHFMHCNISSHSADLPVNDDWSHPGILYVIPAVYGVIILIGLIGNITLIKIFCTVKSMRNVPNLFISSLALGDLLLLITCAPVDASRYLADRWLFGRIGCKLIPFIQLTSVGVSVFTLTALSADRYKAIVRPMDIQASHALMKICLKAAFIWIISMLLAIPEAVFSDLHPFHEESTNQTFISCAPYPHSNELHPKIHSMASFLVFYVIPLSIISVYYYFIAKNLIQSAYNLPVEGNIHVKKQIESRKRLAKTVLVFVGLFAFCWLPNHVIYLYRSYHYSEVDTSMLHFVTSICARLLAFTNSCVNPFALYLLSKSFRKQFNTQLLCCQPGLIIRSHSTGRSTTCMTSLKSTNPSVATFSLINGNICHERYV

Question: Which Kd does the source give for B1 here?
Answer: 5.6 nM

Question: B2 was tested. Which Kd did it give?
Answer: 10.9 nM

Question: For B3, which Kd is on record?
Answer: 11.3 nM
